# Publication PMC7820495
# T1: GST-SVIP (Drosophila SVIP, CG32039), Q8IQC6
# T1 chain: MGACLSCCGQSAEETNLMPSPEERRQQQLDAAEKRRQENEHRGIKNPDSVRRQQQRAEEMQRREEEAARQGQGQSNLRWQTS
# Target: T1, GST-SVIP (Drosophila SVIP, CG32039), …
# Assay: in vitro binding titration assay
# Settings: chain shown with the change;; parent: 0.70 uM
row,Binder,Kd
1,"MBP-VCP^N-D1 (Drosophila VCP, N-terminal and first D1 ATPase domain), Q7KN62 P134L (protein) MADSKGEDLATAILKRKDRPNRLIVEEAQNDDNSVVSLSQAKMDELQLFRGDTVILKGKRRKETVCIVLSDDTCPDEKIRMNRVVRNNLCVHLSDVVSVQSCPDVKYGKRVRILPIDESTEGVTGNLFEIYLKLYFLEAYRPIHMGDNFIVRAAMRPIEFKVVLTDPEPYCIVAPETVIFCDGDPIKREEEEESLNAVGYDDIGGCRKQLAQIKEMVELPLRHPSLFKAIGVKPPRGILMYGPPGTGKTLIARAVANETGAFFFLINGPEIMSKLAGESESNLRKAFEEAEKNSPAIIFIDEIDAIAPKRDKTHGEVERRIVSQLLTLMDGMKKSSHLIVMAATNRPNSIDPALRRFGRFDREIDIGIPDATGRLEVLRIHTKNMKLHDDVDLEQIAAESHGHVGADLASLCSEAALQQIREKMDLIDLEDDKIDAEVLASLAVTMENFRYAMTKSSPSALRETVVEVPNTTWTDIGGLESVKKELQELVQYPVEHPDKFLKFGMQPSRGVLFYGPPGCGKTLLAKAIANECQANFISVKGPELLTMWFGESEANVRDIFDKARSAAPCVLFFDELDSIAKARGGNVGDAGGAADRVINQILTEMDGMGAKKNVFIIGATNRPDIIDPAILRPGRLDQLIYIPLPDDKSREAILKANLRKSPLAKEVDLTYIAKVTQGFSGADLTEICQRACKLAIRQAIEAEIRREKERAENQNSAMDMDEDDPVPEITSAHFEEAMKFARRSVSDNDIRKYEMFAQTLQQSRGFGQNFRFPGQTGNTSGSGNNLPVNSPGDNGDDDLYS",21.6 µM
2,"MBP-VCP^N-D1 (Drosophila VCP, N-terminal and first D1 ATPase domain), Q7KN62 N384H (protein) MADSKGEDLATAILKRKDRPNRLIVEEAQNDDNSVVSLSQAKMDELQLFRGDTVILKGKRRKETVCIVLSDDTCPDEKIRMNRVVRNNLCVHLSDVVSVQSCPDVKYGKRVRILPIDESTEGVTGNLFEIYLKPYFLEAYRPIHMGDNFIVRAAMRPIEFKVVLTDPEPYCIVAPETVIFCDGDPIKREEEEESLNAVGYDDIGGCRKQLAQIKEMVELPLRHPSLFKAIGVKPPRGILMYGPPGTGKTLIARAVANETGAFFFLINGPEIMSKLAGESESNLRKAFEEAEKNSPAIIFIDEIDAIAPKRDKTHGEVERRIVSQLLTLMDGMKKSSHLIVMAATNRPNSIDPALRRFGRFDREIDIGIPDATGRLEVLRIHTKHMKLHDDVDLEQIAAESHGHVGADLASLCSEAALQQIREKMDLIDLEDDKIDAEVLASLAVTMENFRYAMTKSSPSALRETVVEVPNTTWTDIGGLESVKKELQELVQYPVEHPDKFLKFGMQPSRGVLFYGPPGCGKTLLAKAIANECQANFISVKGPELLTMWFGESEANVRDIFDKARSAAPCVLFFDELDSIAKARGGNVGDAGGAADRVINQILTEMDGMGAKKNVFIIGATNRPDIIDPAILRPGRLDQLIYIPLPDDKSREAILKANLRKSPLAKEVDLTYIAKVTQGFSGADLTEICQRACKLAIRQAIEAEIRREKERAENQNSAMDMDEDDPVPEITSAHFEEAMKFARRSVSDNDIRKYEMFAQTLQQSRGFGQNFRFPGQTGNTSGSGNNLPVNSPGDNGDDDLYS",1.16 µM
3,"MBP-VCP^N-D1 (Drosophila VCP, N-terminal and first D1 ATPase domain), Q7KN62 L195W (protein) MADSKGEDLATAILKRKDRPNRLIVEEAQNDDNSVVSLSQAKMDELQLFRGDTVILKGKRRKETVCIVLSDDTCPDEKIRMNRVVRNNLCVHLSDVVSVQSCPDVKYGKRVRILPIDESTEGVTGNLFEIYLKPYFLEAYRPIHMGDNFIVRAAMRPIEFKVVLTDPEPYCIVAPETVIFCDGDPIKREEEEESWNAVGYDDIGGCRKQLAQIKEMVELPLRHPSLFKAIGVKPPRGILMYGPPGTGKTLIARAVANETGAFFFLINGPEIMSKLAGESESNLRKAFEEAEKNSPAIIFIDEIDAIAPKRDKTHGEVERRIVSQLLTLMDGMKKSSHLIVMAATNRPNSIDPALRRFGRFDREIDIGIPDATGRLEVLRIHTKNMKLHDDVDLEQIAAESHGHVGADLASLCSEAALQQIREKMDLIDLEDDKIDAEVLASLAVTMENFRYAMTKSSPSALRETVVEVPNTTWTDIGGLESVKKELQELVQYPVEHPDKFLKFGMQPSRGVLFYGPPGCGKTLLAKAIANECQANFISVKGPELLTMWFGESEANVRDIFDKARSAAPCVLFFDELDSIAKARGGNVGDAGGAADRVINQILTEMDGMGAKKNVFIIGATNRPDIIDPAILRPGRLDQLIYIPLPDDKSREAILKANLRKSPLAKEVDLTYIAKVTQGFSGADLTEICQRACKLAIRQAIEAEIRREKERAENQNSAMDMDEDDPVPEITSAHFEEAMKFARRSVSDNDIRKYEMFAQTLQQSRGFGQNFRFPGQTGNTSGSGNNLPVNSPGDNGDDDLYS",0.6 µM
4,"MBP-VCP^N-D1 (Drosophila VCP, N-terminal and first D1 ATPase domain), Q7KN62 R188Q (protein) MADSKGEDLATAILKRKDRPNRLIVEEAQNDDNSVVSLSQAKMDELQLFRGDTVILKGKRRKETVCIVLSDDTCPDEKIRMNRVVRNNLCVHLSDVVSVQSCPDVKYGKRVRILPIDESTEGVTGNLFEIYLKPYFLEAYRPIHMGDNFIVRAAMRPIEFKVVLTDPEPYCIVAPETVIFCDGDPIKQEEEEESLNAVGYDDIGGCRKQLAQIKEMVELPLRHPSLFKAIGVKPPRGILMYGPPGTGKTLIARAVANETGAFFFLINGPEIMSKLAGESESNLRKAFEEAEKNSPAIIFIDEIDAIAPKRDKTHGEVERRIVSQLLTLMDGMKKSSHLIVMAATNRPNSIDPALRRFGRFDREIDIGIPDATGRLEVLRIHTKNMKLHDDVDLEQIAAESHGHVGADLASLCSEAALQQIREKMDLIDLEDDKIDAEVLASLAVTMENFRYAMTKSSPSALRETVVEVPNTTWTDIGGLESVKKELQELVQYPVEHPDKFLKFGMQPSRGVLFYGPPGCGKTLLAKAIANECQANFISVKGPELLTMWFGESEANVRDIFDKARSAAPCVLFFDELDSIAKARGGNVGDAGGAADRVINQILTEMDGMGAKKNVFIIGATNRPDIIDPAILRPGRLDQLIYIPLPDDKSREAILKANLRKSPLAKEVDLTYIAKVTQGFSGADLTEICQRACKLAIRQAIEAEIRREKERAENQNSAMDMDEDDPVPEITSAHFEEAMKFARRSVSDNDIRKYEMFAQTLQQSRGFGQNFRFPGQTGNTSGSGNNLPVNSPGDNGDDDLYS",1.5 µM
5,"MBP-VCP^N-D1 (Drosophila VCP, N-terminal and first D1 ATPase domain), Q7KN62 A436S (protein) MADSKGEDLATAILKRKDRPNRLIVEEAQNDDNSVVSLSQAKMDELQLFRGDTVILKGKRRKETVCIVLSDDTCPDEKIRMNRVVRNNLCVHLSDVVSVQSCPDVKYGKRVRILPIDESTEGVTGNLFEIYLKPYFLEAYRPIHMGDNFIVRAAMRPIEFKVVLTDPEPYCIVAPETVIFCDGDPIKREEEEESLNAVGYDDIGGCRKQLAQIKEMVELPLRHPSLFKAIGVKPPRGILMYGPPGTGKTLIARAVANETGAFFFLINGPEIMSKLAGESESNLRKAFEEAEKNSPAIIFIDEIDAIAPKRDKTHGEVERRIVSQLLTLMDGMKKSSHLIVMAATNRPNSIDPALRRFGRFDREIDIGIPDATGRLEVLRIHTKNMKLHDDVDLEQIAAESHGHVGADLASLCSEAALQQIREKMDLIDLEDDKIDSEVLASLAVTMENFRYAMTKSSPSALRETVVEVPNTTWTDIGGLESVKKELQELVQYPVEHPDKFLKFGMQPSRGVLFYGPPGCGKTLLAKAIANECQANFISVKGPELLTMWFGESEANVRDIFDKARSAAPCVLFFDELDSIAKARGGNVGDAGGAADRVINQILTEMDGMGAKKNVFIIGATNRPDIIDPAILRPGRLDQLIYIPLPDDKSREAILKANLRKSPLAKEVDLTYIAKVTQGFSGADLTEICQRACKLAIRQAIEAEIRREKERAENQNSAMDMDEDDPVPEITSAHFEEAMKFARRSVSDNDIRKYEMFAQTLQQSRGFGQNFRFPGQTGNTSGSGNNLPVNSPGDNGDDDLYS",0.6 µM
6,"MBP-VCP^N-D1 (Drosophila VCP, N-terminal and first D1 ATPase domain), Q7KN62 R156C (protein) MADSKGEDLATAILKRKDRPNRLIVEEAQNDDNSVVSLSQAKMDELQLFRGDTVILKGKRRKETVCIVLSDDTCPDEKIRMNRVVRNNLCVHLSDVVSVQSCPDVKYGKRVRILPIDESTEGVTGNLFEIYLKPYFLEAYRPIHMGDNFIVRAAMCPIEFKVVLTDPEPYCIVAPETVIFCDGDPIKREEEEESLNAVGYDDIGGCRKQLAQIKEMVELPLRHPSLFKAIGVKPPRGILMYGPPGTGKTLIARAVANETGAFFFLINGPEIMSKLAGESESNLRKAFEEAEKNSPAIIFIDEIDAIAPKRDKTHGEVERRIVSQLLTLMDGMKKSSHLIVMAATNRPNSIDPALRRFGRFDREIDIGIPDATGRLEVLRIHTKNMKLHDDVDLEQIAAESHGHVGADLASLCSEAALQQIREKMDLIDLEDDKIDAEVLASLAVTMENFRYAMTKSSPSALRETVVEVPNTTWTDIGGLESVKKELQELVQYPVEHPDKFLKFGMQPSRGVLFYGPPGCGKTLLAKAIANECQANFISVKGPELLTMWFGESEANVRDIFDKARSAAPCVLFFDELDSIAKARGGNVGDAGGAADRVINQILTEMDGMGAKKNVFIIGATNRPDIIDPAILRPGRLDQLIYIPLPDDKSREAILKANLRKSPLAKEVDLTYIAKVTQGFSGADLTEICQRACKLAIRQAIEAEIRREKERAENQNSAMDMDEDDPVPEITSAHFEEAMKFARRSVSDNDIRKYEMFAQTLQQSRGFGQNFRFPGQTGNTSGSGNNLPVNSPGDNGDDDLYS",1.77 µM
7,"MBP-VCP^N-D1 (Drosophila VCP, N-terminal and first D1 ATPase domain), Q7KN62 A154R (protein) MADSKGEDLATAILKRKDRPNRLIVEEAQNDDNSVVSLSQAKMDELQLFRGDTVILKGKRRKETVCIVLSDDTCPDEKIRMNRVVRNNLCVHLSDVVSVQSCPDVKYGKRVRILPIDESTEGVTGNLFEIYLKPYFLEAYRPIHMGDNFIVRARMRPIEFKVVLTDPEPYCIVAPETVIFCDGDPIKREEEEESLNAVGYDDIGGCRKQLAQIKEMVELPLRHPSLFKAIGVKPPRGILMYGPPGTGKTLIARAVANETGAFFFLINGPEIMSKLAGESESNLRKAFEEAEKNSPAIIFIDEIDAIAPKRDKTHGEVERRIVSQLLTLMDGMKKSSHLIVMAATNRPNSIDPALRRFGRFDREIDIGIPDATGRLEVLRIHTKNMKLHDDVDLEQIAAESHGHVGADLASLCSEAALQQIREKMDLIDLEDDKIDAEVLASLAVTMENFRYAMTKSSPSALRETVVEVPNTTWTDIGGLESVKKELQELVQYPVEHPDKFLKFGMQPSRGVLFYGPPGCGKTLLAKAIANECQANFISVKGPELLTMWFGESEANVRDIFDKARSAAPCVLFFDELDSIAKARGGNVGDAGGAADRVINQILTEMDGMGAKKNVFIIGATNRPDIIDPAILRPGRLDQLIYIPLPDDKSREAILKANLRKSPLAKEVDLTYIAKVTQGFSGADLTEICQRACKLAIRQAIEAEIRREKERAENQNSAMDMDEDDPVPEITSAHFEEAMKFARRSVSDNDIRKYEMFAQTLQQSRGFGQNFRFPGQTGNTSGSGNNLPVNSPGDNGDDDLYS",3.61 µM
